Experiments:
[1] = biological target: C3 complement protein (human)
[2] = biological target: C1r complement protein (human)
[3] = biological target: C1s complement protein (human)

complement evasion factor (CEF), recombinant Spy0136 (from UniProt Q9A1R6 28-221) (natural protein)
C3b deposition on S. pyogenes opsonised with human serum with 0.5 µM rCEF, flow cytometry [1]: 30 % decrease | Wieslab complement assay, classical pathway activity (C5b-9 formation) of serum pre-incubated with 2 µM rCEF [2]: < 10 % activity | Wieslab complement assay, classical pathway activity (C5b-9 formation) of serum pre-incubated with 2 µM rCEF [3]: < 10 % activity

— paper PMC8803112
